Measurements from publication PMC11930357.
Each block holds one substance with its values, some of them ahead of it.

Legend:
HP1α = HP1α (UniProt P45973); experiment: SEC-MALS molar mass (CSD-mediated dimer); settings: sites S11,S12,S13,S14
[1] = target: Phosphorylated CSD deletion mutant of HP1α_S97A (residues 1–120, phosphorylated at Ser11–Ser14) (human) (UniProt P45973); experiment: SEC-SAXS; Superdex 200 Increase, 20 mM sodium phosphate pH 7.0, 1 mM DTT, 50 mM NaCl; Rg against concentration; profiles fitted with EOM and with reweighted CGMD ensembles (one- or two-molecule systems)
HP1α ΔCSD, 1-120 = HP1α ΔCSD, 1-120 (UniProt P45973); experiment: SEC-MALS molar mass; settings: reference: ΔCSD expressed without CK2; sites S11,S12,S13,S14

Sequence of HP1α (P45973 whole entry, stated change not applied, the tested form may be a part): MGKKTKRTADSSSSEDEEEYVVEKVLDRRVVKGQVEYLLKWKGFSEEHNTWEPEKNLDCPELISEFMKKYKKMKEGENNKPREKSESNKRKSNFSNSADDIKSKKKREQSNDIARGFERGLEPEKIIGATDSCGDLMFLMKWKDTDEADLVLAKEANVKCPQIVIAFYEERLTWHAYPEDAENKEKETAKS
Sequence of HP1α ΔCSD, 1-120 (P45973 whole entry, stated change not applied): as the sequence (P45973 whole entry, stated change not applied, the tested form may be a part) above

- other: molar mass (HP1α; reference: HP1α expressed without CK2, 500 mM NaCl): same; reference 44.5
Substance: HP1α (from UniProt P45973) pHP1α co-expressed with CK2, 500 mM NaCl

- stoichiometry N [1]: 2
Substance: Phosphorylated CSD deletion mutant of HP1α_S97A (residues 1–120, phosphorylated at Ser11–Ser14) (from UniProt P45973 1-120) (domain or fragment)

- other: molar mass (HP1α; reference: HP1α expressed without CK2, 50 mM NaCl): same; reference 45.7
Substance: HP1α (from UniProt P45973) pHP1α co-expressed with CK2, 50 mM NaCl

- other: molar mass (HP1α ΔCSD, 1-120): none in both; reference 16.3
Substance: HP1α ΔCSD, 1-120 (from UniProt P45973) pΔCSD co-expressed with CK2
